Entries after “also recorded” stand apart in the source; their conditions may differ. Like-named read-outs stand apart in the source and are kept apart here.
What was measured:
[1] = test system: retinal nerve degeneration model; conditions: prior injection of midkine; cited from earlier work
[2] = compared with mouse MK produced in L cells; cited from earlier work
[3] = test system: cerebral ischemia reperfusion insult model; conditions: cited from earlier work
[4] = test system: PKC; assay: Phospho-PKC expression in HMVEC-L by Western blotting; type: cell-based, human; conditions: exogenous MK 100 ng/ml plus heparin 20 μg/ml
Description: Histology and immunohistochemistry. The removed kidneys and lungs were fixed in 10% buffered formalin, embedded in paraffin, and then cut into 4-10.1 μm sections. The sections were stained with H&E, PAS, and Masson's trichrome. Another tissue sample was embedded in OCT compound (Sakura Finetek) and frozen in liquid nitrogen for immunostaining. Sections were cut to a thickness of 3 μm with a cryostat and fixed in acetone. High-power fields were used to examine the sections for evidence of focal sclerosis (J. Hypertens. 13:1785-1790, J. Lab. Clin. Med. 115:165-173). Glomerular sclerosis was assessed by semiquantitative score (grades 0 to +4) using the method of Raij et al. (Kidney Int. 26:137-143): grade 0, no sclerosis of glomeruli; grade 1, sclerosis of up to 25% of glomerulus; grade 2, sclerosis of 25%-50% of glomerulus; grade 3, sclerosis of 50%-75% of glomerulus; grade 4, sclerosis of 75%-100% of glomerulus. At least 50 glomeruli were evaluated under ×400 magnification and results averaged for each kidney (Mdk^+/+: 2 weeks, n=5; 4 weeks, n=4; 8 weeks, n=4; Mdk^−/−: 2 weeks, n=4; 4 weeks, n=3; 8 weeks, n=3). Immunostaining for ACE and MK was performed on buffered formalin-fixed tissues. […] The lung and kidney section from each mouse was viewed under ×400 magnification, and then macrophages or neutrophils were counted from 10 fields and averaged. […]

[5] = test system: Mdk-/- mice after 5/6 nephrectomy; assay: rh-MK and -PTN treatment model (osmotic pump), blood pressure by tail-cuff; type: in vivo; conditions: 1.6 mg/ml, 100 μl by osmotic pump over 14 days
Procedure: (§1) rh-MK and -PTN treatment model. In the pump study, MK protein in saline (1.6 mg/ml) (n=5), PTN in saline (1.6 mg/ml; n=5), or saline alone (n=5) was infused using an osmotic pump (ALZA Corp.) into Mdk^−/− mice after 5/6 nephrectomy. The pumps continuously infused a total of 100 μl over 14 days. The pumps were implanted under the dorsal skin the next day after 5/6 nephrectomy. Blood pressure was measured by the indirect tail-cuff technique at 0 and 2 weeks after 5/6 nephrectomy. Mice were sacrificed at 2 weeks after 5/6 nephrectomy, and blood and tissue samples were collected.
Blood pressure monitoring. Blood pressure was measured in restrained, conscious mice by the indirect tail-cuff technique under unstressed conditions (BP-98A; Softron) at 0, 2, 4, 6, and 8 weeks after 5/6 nephrectomy (J. Lab. Clin. Med. 78:957-962). Before measurement, the mice were warmed with a heating pad for 5 minutes. A total of 7-10 readings were taken for each mouse, at 1- to 2-minute intervals.

[6] = test system: HMVEC-L; assay: Ang II concentration in HMVEC-L (conversion from Ang I to Ang II); type: cell-based, human; conditions: HMVEC-L treated 36 hours with MK 100 ng/ml plus heparin 20 μg/ml or heparin alone, then Ang I added
Procedure: Ang II concentration in HMVEC-L. After reaching confluence, HMVEC-L were washed with PBS and cultured for 24 hours in essential basal medium containing 0.5% FBS. These cells were exposed to 100 ng/ml rh-MK plus 20 μg/ml heparin or 20 μg/ml heparin alone in essential basal medium containing 0.5% FBS for 36 hours. After stimulation, HMVEC-L were washed with PBS and exposed to 500 pM Ang I (Sigma-Aldrich) for 10 and 25 minutes. Supernatants were collected into chilled tubes, and then the Ang II concentration was measured as previously described (Hypertension. 39:129-134).

[7] = test system: ACE; assay: ACE expression in HMVEC-L by Western blotting; type: cell-based, human; conditions: exogenous MK protein 100 ng/ml plus heparin 20 μg/ml
Description: Histology and immunohistochemistry. The removed kidneys and lungs were fixed in 10% buffered formalin, embedded in paraffin, and then cut into 4-10.1 μm sections. The sections were stained with H&E, PAS, and Masson's trichrome. Another tissue sample was embedded in OCT compound (Sakura Finetek) and frozen in liquid nitrogen for immunostaining. Sections were cut to a thickness of 3 μm with a cryostat and fixed in acetone. High-power fields were used to examine the sections for evidence of focal sclerosis (J. Hypertens. 13:1785-1790, J. Lab. Clin. Med. 115:165-173). Glomerular sclerosis was assessed by semiquantitative score (grades 0 to +4) using the method of Raij et al. (Kidney Int. 26:137-143): grade 0, no sclerosis of glomeruli; grade 1, sclerosis of up to 25% of glomerulus; grade 2, sclerosis of 25%-50% of glomerulus; grade 3, sclerosis of 50%-75% of glomerulus; grade 4, sclerosis of 75%-100% of glomerulus. At least 50 glomeruli were evaluated under ×400 magnification and results averaged for each kidney (Mdk^+/+: 2 weeks, n=5; 4 weeks, n=4; 8 weeks, n=4; Mdk^−/−: 2 weeks, n=4; 4 weeks, n=3; 8 weeks, n=3). Immunostaining for ACE and MK was performed on buffered formalin-fixed tissues. Sections were deparaffinized, rehydrated, incubated in 3% hydrogen peroxide in methanol to block endogenous peroxidase, and washed in 10% normal goat serum (Dako) in PBS to block nonspecific binding. Subsequently, sections were incubated with mouse anti-ACE monoclonal antibody (dilution, 1:400; Chemicon International, Millipore) or anti-MK monoclonal antibody (dilution, 1:100) overnight at 4° C. as described previously (22), followed by a conjugate of polyclonal goat anti-mouse IgG antibody and HRP-labeled polymer (Histofine Simple Stain; Nichirei) for 1 hour at room temperature as a secondary antibody. The staining was visualized with 3-3′ diaminobenzidine (Nichirei) to produce a brown color. The sections were covered with 90% glycerol containing p-phenylenediamine and were examined by electron microscopy (H-7100; Hitachi). For double immunofluorescence staining of MK and thrombomodulin as a marker of the vascular endothelium, the cryosections of lungs were first incubated with chicken anti-human MK (dilution, 1:200) and then with rabbit anti-rat thrombomodulin (dilution, 1:1,000) (J. Immunol. 150:5633-5646), followed by incubation with FITC-labeled rabbit anti-chicken IgG (dilution, 1:160) and rhodamine-labeled goat anti-rabbit IgG (dilution, 1:320) as secondary antibodies. […] The lung and kidney section from each mouse was viewed under ×400 magnification, and then macrophages or neutrophils were counted from 10 fields and averaged. […]

[8] = test system: acute myocardial infarction model; conditions: administration of midkine; cited from earlier work
[9] = test system: ACE; assay: rh-MK and -PTN treatment model, ACE expression in the lung by Western blotting; type: in vivo; conditions: Mdk-/- mice after 5/6 nephrectomy, 1.6 mg/ml, 100 μl by osmotic pump over 14 days
Procedure: as §1
Western blot analysis. Mouse kidney, lung, brain, heart, and liver tissues were snap-frozen in liquid nitrogen for protein isolation. Western blot analysis was performed as described previously (Br. J. Cancer. 75:354-359). The blots were subsequently incubated with goat anti-human MK antibody (dilution, 1:1,000), monoclonal anti-β-actin antibody (dilution, 1:1,000; Sigma-Aldrich), mouse anti-ACE monoclonal antibody (dilution, 1:1,000; Chemicon International, Millipore), or rabbit anti-phospho-PKC antibody (dilution, 1:1,000; Cell Signaling Technology), followed by incubation with peroxidase-conjugated goat IgG, mouse IgG, or rabbit IgG (dilution, 1:5,000; Jackson Immunoresearch Laboratories Inc.). […] The density of each band was measured using the public domain NIH Image program (http://rsb.info.nih.gov/nih-image/).

B1: MK: recombinant human midkine produced in Pichia pastoris; 13 kDa heparin-binding protein (protein, UniProt P21741 21-143, looked up)
Midkine: VAKKKDKVKKGGPGSECAEWAWGPCTPSSKDCGVGFREGTCGAQTQRIRCRVPCNWKKEFGADCKYKFENWGACDGGTGTKVRQGTLKKARYNAQCQETIRVTKPCTPKTKAKAKAKKGKGKD
Neuronal cell loss [1]: reduced | Neurotrophic activity [2]: comparable | Loss of hippocampal neuronal cells ([3]; post-insult therapeutic administration): ineffective | Loss of hippocampal neuronal cells ([3]; prior ventricular administration of midkine): able to remedy | Phosphorylation levels of PKC [4]: increased | Hypertension (SBP) [5]: restore hypertension; also recorded: restored | Conversion of Ang I to Ang II [6]: converted to Ang II in a time-dependent manner | ACE expression in HMVEC-L [7]: significantly enhanced; also recorded: induced | Apoptotic loss of myocardial cells [8]: reduction | ACE expression in the lung [9]: restored

From patent US20110059102A1, “Therapeutic Method Targeting Midkine” (NATIONAL UNIVERSITY CORPORATION NAGOYA UNIVERSITY, priority 2009, published 2011)
